Measurements taken from US20210130484A1 (SORRENTO THERAPEUTICS, published 2021).

Target: T1, Recombinant human his-tagged CD38 protein (human, UniProt P28907 43-300)
T1 construct: not shown: his tag
Assay: SPR (Biacore T200, 25 C), antibody captured on anti-human Fc CM5 chip, his-tagged human CD38 as analyte, steady state affinity model
Experimental: Binding kinetics of parent antibody CD38 A2 and variant antibody CD38 A2 SV was measured using surface plasmon resonance (SPR). Kinetic interaction between the parent or variant antibody and a his-tagged CD38 protein were measured at 25° C. using Biacore T200 surface plasmon resonance (GE Healthcare). Anti-human fragment crystallizable region (Fc region) antibody was immobilized on a CM5 sensor chip to approximately 8000 resonance units (RU) using standard N hydroxysuccinimide/N Ethyl-N′-(3-dimethylaminopropyl) carbodiimide hydrochloride (NHS/EDC) coupling methodology. The CD38 A2 parent antibody or CD38 A2 SV variant antibody (2 μg/mL) was captured for 60 seconds at a flow rate of 10 μL/minute. Recombinant human his-tagged CD38 protein was serially diluted in a running buffer of 0.01 M HEPES pH 7.4, 0.15 M NaCl, 3 mM EDTA, 0.05% v/v Surfactant P20 (HBS EP+). All measurements were conducted in HBS-EP+buffer with a flow rate of 30 μL/minute. Steady state affinity model was used to get affinity. The sensorgrams of the CD38 A2 parent antibody and CD38 A2 SV variant antibody are shown in FIGS. 3A and B, respectively, and their corresponding binding kinetics are listed in Table 3 below.

Kd: 0.0156 µM
B1: variant antibody CD38 A2 SV (antibody, V domains shown)
VH: QVQLVESGGGLVKPGGSLRLSCAASGFTFSDDYMSWIRQAPGKGLEWVASVSNGRPTTYYADSVRGRFTISRDNAKNSLYLQMNSLRAEDTAVYYCAREDWGGEFTDWGRGTLVTVSS
VL: QSVLTQPPSASGTSGQRVTISCSGSSSNIGINFVYWYQHLPGTAPKLLIYKNNQRPSGVPDRFSGSKSGNSASLAISGLRSEDEADYYCAAWDDSLSGYVFGSGTKVTVL
notes: also called CD38-A2 SV mutant; CD38 A2 SV variant antibody
